This test has as its target FKBP12 (protein used for ITC) (human, UniProt P62942 1-108). The test is described as follows: ITC. Background: ITC needs no label: the signal is the heat of the interaction.

The source of these data is publication PMC5378873 (Oncogene, 2016).

By Kd is commonly meant a measure of binding affinity in units of concentration.

FKBP12 (protein used for ITC), sequence (P62942 whole entry): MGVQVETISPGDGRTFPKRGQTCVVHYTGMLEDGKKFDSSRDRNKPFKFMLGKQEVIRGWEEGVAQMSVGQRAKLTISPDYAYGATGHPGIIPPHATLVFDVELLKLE

B1: MDM2 (425-491) RING domain (protein used for ITC) (domain or fragment, human, UniProt Q00987 425-491, looked up)
chain: SVESSLPLNAIEPCVICQGRPKNGCIVHGKTGHLMACFTCAKKLKKRNKPCPVCRQPIQMIVLTYFP
B1 had a Kd of 1940 nM.
